Data on six proteins can be found in article PMC3769225, “Modulation of Global Low-Frequency Motions Underlies Allosteric Regulation: Demonstration in CRP/FNR Family Transcription Factors” (PLoS Biology, 2013).

The labels stand for the following.
B1: Catabolite Activator Protein (CAP) of Escherichia coli, wild-type (natural protein, UniProt P0ACJ8 1-210, looked up)
chain: MVLGKPQTDPTLEWFLSHCHIHKYPSKSTLIHQGEKAETLYYIVKGSVAVLIKDEEGKEMILSYLNQGDFIGELGLFEEGQERSAWVRAKTACEVAEISYKKFRQLIQVNPDILMRLSAQMARRLQVTSEKVGNLAFLDVTGRIAQTLLNLAKQPDAMTHPDGMQIKITRQEIGQIVGCSRETVGRILKMLEDQNLISAHGKTIVVYGTR
notes: also called CAP wild-type
B2: CAP V132A (natural protein, Escherichia coli, UniProt P0ACJ8 1-210, looked up)
chain: B1 chain with V132A
B3: CAP V132L (natural protein, Escherichia coli, UniProt P0ACJ8 1-210, looked up)
chain: B1 chain with V132L
B4: CAP V140A (natural protein, Escherichia coli, UniProt P0ACJ8 1-210, looked up)
chain: B1 chain with V140A
B5: CAP H160L (natural protein, Escherichia coli, UniProt P0ACJ8 1-210, looked up)
chain: B1 chain with H160L
B6: CAP V140L (natural protein, Escherichia coli, UniProt P0ACJ8 1-210, looked up)
chain: B1 chain with V140L

Substitutions are numbered along the chain they refer to. In names and notes the source's numbering stands.

This series concerns the molecule itself. The experiment in a line: crystal structure; homodimer in crystals grown at pH 6.5 with 7-10% PEG 3350, 15-20% 2-methyl-2,4-pentanediol and 2 mM cAMP; cAMP-bound protein.
With B1, the binding result is “binds”.

B2: the binding result was “binds”.

As for B3, the binding result is recorded as “binds”.

Turning to B4, the binding result is “binds”.

On to B5, for which the binding result is given as “binds”.

For the protein B6, the binding result is given as “binds”.
